Consider three molecules from patent US20080274129A1 (BIOTECH SYNERGY, published 2008).

Non-standard residues stand in square brackets, D forms with d. No end group written: not given here. Aib = CC(C)(N)C(=O)O

For test [1], the target named is T1, HLA-A2.1 molecule (purified) (human).
T1 construct: limits of the heavy chain and presence of b2m in the preparation are not described; also called HLA-A*0201; prototype HLA-A2.1 molecule
Put plainly: peptide binding to purified HLA-A2.1 molecule.

Test [2] concerns the target HLA-A2 supertype alleles. Put plainly: peptide binding to purified MHC molecules of the HLA-A2 supertype; count of alleles bound.

With IMIGHLVGV (also called peptide 1352.02) [CEA.691H5], the binding result in test [1] is “binds”. This molecule also showed a No. A2 Alleles Crossbound in test [2] of 5 alleles. For KVAEIVHFL (also called peptide 1352.03) [MAGE-3.112I5], in that order: “binds” and 5 alleles. KL[Aib]PVQLWV (not fully specified) [p53.139L2B3] had a No. A2 Alleles Crossbound in test [2] of 4 alleles.
